Results reported in article PMC3659094.

Target: human Tyrosine kinase receptor B (TrkB) (human) (UniProt Q16620)
UniProt Q16620, sequence (Q16620 other isoform, or with tags, fused parts or gaps): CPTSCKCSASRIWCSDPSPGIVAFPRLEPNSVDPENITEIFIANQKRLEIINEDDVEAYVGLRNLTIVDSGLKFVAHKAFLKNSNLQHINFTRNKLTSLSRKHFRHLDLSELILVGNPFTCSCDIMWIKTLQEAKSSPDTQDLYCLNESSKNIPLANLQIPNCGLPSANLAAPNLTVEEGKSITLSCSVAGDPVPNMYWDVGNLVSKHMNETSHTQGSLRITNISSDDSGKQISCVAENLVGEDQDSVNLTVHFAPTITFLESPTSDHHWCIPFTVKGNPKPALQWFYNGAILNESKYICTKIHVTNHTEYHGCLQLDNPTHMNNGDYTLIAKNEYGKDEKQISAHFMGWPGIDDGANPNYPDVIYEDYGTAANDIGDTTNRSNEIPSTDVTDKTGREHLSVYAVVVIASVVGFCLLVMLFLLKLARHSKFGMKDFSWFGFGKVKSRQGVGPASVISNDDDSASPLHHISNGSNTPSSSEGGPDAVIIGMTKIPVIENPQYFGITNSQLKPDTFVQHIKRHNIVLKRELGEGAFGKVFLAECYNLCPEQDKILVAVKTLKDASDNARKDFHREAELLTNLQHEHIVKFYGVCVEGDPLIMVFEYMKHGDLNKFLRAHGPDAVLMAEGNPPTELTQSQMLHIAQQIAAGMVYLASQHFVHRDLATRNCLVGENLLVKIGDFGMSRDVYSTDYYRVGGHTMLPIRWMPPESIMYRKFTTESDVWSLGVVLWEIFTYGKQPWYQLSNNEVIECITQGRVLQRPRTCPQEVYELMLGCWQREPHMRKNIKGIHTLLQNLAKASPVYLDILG

- EC50 of recruitment of SHC1 to human TrkB in U2OS cells (Pathhunter): 1 nM
- EC50 of transcriptional activation of a CRE-luciferase reporter in HEK293 cells expressing human TrkB: 5.2 nM
Substance: brain-derived neurotrophic factor (BDNF) (ligand)
